# Source: patent publication US20250197848A1 (published 2025)
# T1: PRAME peptide on HLA-A*02:01 (human)
# T1 peptide: VLDGLDVLL
# T2: PRAME peptide on HLA-A*02:01 (human)
# T2 peptide: SLLQHLIGL
# T3: NY-ESO-1/LAGE-1 peptide on HLA-A*02 (human)
# T3 peptide: SLLMWITQC
# B1: PRAMEVLD-TCR (TCR, V domains shown)
# Valpha: EDQVTQSPEALRLQEGESSSLNCSYTVSGLRGLFWYRQDPGKGPEFLFTLYSAGEEKEKERLKATLTKKESFLHITAPKPEDSATYLCAVHSTAQAGTALIFGKGTTLSVSS
# Vbeta: DSGVTQTPKHLITATGQRVTLRCSPRSGDLSVYWYQQSLDQGLQFLIQYYNGEERAKGNILERFSAQQFPDLHSELNLSSLELGDSALYFCASSTHRGQTNYGYTFGSGTRLTVV
# B2: NY-ESO TCR (TCR, V domains shown)
# Valpha: QKEVEQNSGPLSVPEGAIASLNCTYSDRGSQSFFWYRQYSGKSPELIMFIYSNGDKEDGRFTAQLNKASQYVSLLIRDSQPSDSATYLCAADDKIIFGKGTRLHILP
# Vbeta: DAGVIQSPRHEVTEMGQEVTLRCKPISGHDYLFWYRQTMMRGLELLIYFNNNVPIDDSGMPEDRFSAKMPNASFSTLKIQPSEPRDSAVYFCASSRGGSGYTFGSGTRLTVV
# Experiments:
# [1] = target: T1, PRAME peptide on HLA-A*02:01; assay: cytokine release
# [2] = target: T2, PRAME peptide on HLA-A*02:01; assay: activation reporter or marker
# [3] = target: T3, NY-ESO-1/LAGE-1 peptide on HLA-A*02; assay: cytokine release
Binder,binding result [1],binding result [2],binding result [3]
B1,recognises,no recognition,
B2,,,recognises
